This passage reports Kd results from article PMC9036092 (The Journal of Cell Biology, 2022).

B2: FITC-labeled peptide corresponding to residues 699–729 of BAP1 (peptide)
peptide: {FITC-Ahx}-RRRQGVSIGRLHKQRKPDRRKRSRPYKAKRQ

Holding throughout (experiment): fluorescence polarisation
For assay [1], the target named is FITC-labeled peptide corresponding to residues 699–729 of BAP1 (human).
The target of assay [2] is B2.
In assay [3] the target is Importin α5 (KPNA1), residues 66–512, without the IBB domain (UniProt P52294 66-512).

Where no end group is shown, it is not given here. The star is where a group is joined. FITC = O=C1OC2(c3ccc(O)cc3Oc3cc(O)ccc32)c2ccc(NC(=S)*)cc21; Ahx = NCCCCCC(=O)O

Importin α5 (KPNA1), residues 66–512, without the IBB domain, sequence (P52294 66-512): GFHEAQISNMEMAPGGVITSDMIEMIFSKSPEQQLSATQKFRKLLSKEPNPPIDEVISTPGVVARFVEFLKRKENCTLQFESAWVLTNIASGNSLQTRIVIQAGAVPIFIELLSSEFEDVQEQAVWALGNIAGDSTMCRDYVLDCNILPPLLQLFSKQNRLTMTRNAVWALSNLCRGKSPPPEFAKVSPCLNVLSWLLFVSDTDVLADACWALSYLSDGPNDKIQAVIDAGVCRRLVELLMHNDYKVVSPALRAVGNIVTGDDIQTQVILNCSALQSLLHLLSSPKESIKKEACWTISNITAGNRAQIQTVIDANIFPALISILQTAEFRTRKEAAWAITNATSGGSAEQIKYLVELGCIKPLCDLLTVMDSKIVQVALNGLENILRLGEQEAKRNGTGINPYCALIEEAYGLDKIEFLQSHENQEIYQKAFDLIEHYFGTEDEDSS

By Kd is commonly meant a measure of binding affinity in units of concentration. A lower Kd goes with tighter binding. Turning to “Importin α1 (KPNA2), residues 60–529, without the IBB domain (from UniProt P52292 60-529) (domain or fragment)”, in assay [1], the Kd was over 7200 nM.

B1: Transportin-1 (TNPO1) with the acidic loop (residues 337–367) replaced by a GGSGGSG linker (natural protein)
chain: MEYEWKPDEQGLQQILQLLKESQSPDTTIQRTVQQKLEQLNQYPDFNNYLIFVLTKLKSEDEPTRSLSGLILKNNVKAHFQNFPNGVTDFIKSECLNNIGDSSPLIRATVGILITTIASKGELQNWPDLLPKLCSLLDSEDYNTCEGAFGALQKICEDSAEILDSDVLDRPLNIMIPKFLQFFKHSSPKIRSHAVACVNQFIISRTQALMLHIDSFIENLFALAGDEEPEVRKNVCRALVMLLEVRMDRLLPHMHNIVEYMLQRTQDQDENVALEACEFWLTLAEQPICKDVLVRHLPKLIPVLVNGMKYSDIDIILLKGDVEEDETIPDSEQDIRGGSGGSGDTISDWNLRKCSAAALDVLANVYRDELLPHILPLLKELLFHHEWVVKESGILVLGAIAEGCMQGMIPYLPELIPHLIQCLSDKKALVRSITCWTLSRYAHWVVSQPPDTYLKPLMTELLKRILDSNKRVQEAACSAFATLEEEACTELVPYLAYILDTLVFAFSKYQHKNLLILYDAIGTLADSVGHHLNKPEYIQMLMPPLIQKWNMLKDEDKDLFPLLECLSSVATALQSGFLPYCEPVYQRCVNLVQKTLAQAMLNNAQPDQYEAPDKDFMIVALDLLSGLAEGLGGNIEQLVARSNILTLMYQCMQDKMPEVRQSSFALLGDLTKACFQHVKPCIADFMPILGTNLNPEFISVCNNATWAIGEISIQMGIEMQPYIPMVLHQLVEIINRPNTPKTLLENTAITIGRLGYVCPQEVAPMLQQFIRPWCTSLRNIRDNEEKDSAFRGICTMISVNPSGVIQDFIFFCDAVASWINPKDDLRDMFCKILHGFKNQVGDENWRRFSDQFPLPLKERLAAFYGV
In turn, B1 had a Kd in assay [2] of 19.6 nM.

In assay [3], B2 displayed a Kd of 670 nM.
